From patent publication US20120082682A1 (GlaxoSmithKline, published 2012) come the findings set out here.

For experiment [1], the target named is T1, cyno IL-13 (recombinant E. coli-expressed) (cynomolgus, UniProt Q0PW92 21-132).
T1 construct: also called cynomolgus IL-13
Description: Biacore T100 SPR, Protein A capture (CM5), cyno IL13 analyte, 1:1 fit; 'Impossible off-rates'. On the procedure:
(§1) Protein A was immobilised on a CM5 chip by primary amine coupling; this surface was used as a capture surface for the antibody molecules to be tested. […] All binding curves were double referenced with a 0 nM injection (i.e. buffer alone).
(§2) Regeneration of the Protein A surface was with 50 mM NaOH. The assay was run at 25° C. using HBS-EP as running buffer. The data was fitted to 1:1 model inherent to the Biacore T100 analysis software.
A general note: In SPR one partner is held on a chip, and binding of the other changes the refractive index at the surface.

The target in experiment [2] is T2, human IL-13 (recombinant E. coli-expressed) (human, UniProt P35225 35-146).
T2 construct: also called hIL-13
Description: Biacore T100 SPR, Protein A capture (CM5), human IL13 analyte, 1:1 fit. On the procedure:
as §1, §2

In experiment [3] the target is T2, human IL-13 (recombinant E. …). Description: Biacore T100 SPR, mAb (supernatant) captured on anti-human IgG, IL13 analyte, 1:1 fit. An excerpt:
Table 1 details the overall affinities (equilibrium dissociation constant KD) for the selected constructs from the ProteOn screen and the T100 run

Experiment [4] has the same target. The experiment can be described thus: ProteOn XPR36 SPR, mAb (supernatant) captured on anti-human IgG, IL13 analyte, 1:1 fit. How it is done: The initial screen of CDRH3 mutants was carried out on the ProteOn XPR36 (Biorad). […] 3M MgCl₂ was used to regenerate the capture surface, removing the bound CDRH3 mutant antibodies ready for another cycle of capture and analyte injection. The data was fitted to the 1:1 model using the software inherent to the machine.

Changes are numbered by the printed parent chain.

By Kd is commonly meant the equilibrium constant for the complex coming apart. As a reminder, the koff is a measure of how fast the partners let go of each other. Broadly, the kon is the rate constant with which the complex forms.

T2 sequence (P35225 other isoform, or with tags, fused parts or gaps limits assumed): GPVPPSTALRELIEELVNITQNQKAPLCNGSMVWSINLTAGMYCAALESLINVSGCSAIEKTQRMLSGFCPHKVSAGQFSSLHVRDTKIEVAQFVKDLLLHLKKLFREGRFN

B1: BPC3214 (bispecific antibody, human IgG1, kappa)
heavy: not shown
light: DIQMTQSPSSLSASVGDRVTITCRSSQNIVHINGNTYLEWYQQKPGKAPKLLIYKISDRFSGVPSRFSGSGSGTDFTLTISSLQPEDFATYYCFQGSHVPWTFGQGTKLEIKRTVAAPSVFIFPPSDEQLKSGTASVVCLLNNFYPREAKVQWKVDNALQSGNSQESVTEQDSKDSTYSLSSTLTLSKADYEKHKVYACEVTHQGLSSPVTKSFNRGEC
notes: mAbdAb with the re-humanised light chain P0
Turning to B1, in experiment [1], the Kd was less than 31.1 pM, the koff was less than 1e-05 s⁻¹ and the kon was determined as 321000 M⁻¹ s⁻¹. In experiment [2], the Kd came out at 93 pM, the koff is 7.18e-05 s⁻¹ and the association rate constant (kon) was 775000 M⁻¹ s⁻¹.

B2: BPC3215 (bispecific antibody, human IgG1, kappa)
heavy: not shown
light: B1 light with I2V, Q3L
notes: mAbdAb with the re-humanised light chain P1
For the molecule B2, in experiment [1], the Kd was 9.55 pM, the koff is 3.13e-06 s⁻¹ and the on-rate constant (kon) is 328000 M⁻¹ s⁻¹. For the same molecule, in experiment [2], the Kd amounted to 64 pM, the koff stood at 5.23e-05 s⁻¹ and the kon came out at 822000 M⁻¹ s⁻¹.

B3: A1D98GluL1 (antibody, human IgG1, kappa, V domains shown)
VH: QVQLVQSGAEVKKPGSSVKVSCKASGFYIKDTYMHWVRQAPGQGLEWMGTIDPANGNTKYVPKFQGRVTITADESTSTAYMELSSLRSEDTAVYYCARSIYEDYHYDDYYAMDYWGQGTLVTVSS
VL: DIVMTQSPLSLPVTPGEPASISCRSSQNIVHINGNTYLEWYLQKPGQSPRLLIYKISDRFSGVPDRFSGSGSGTDFTLKISRVEADDVGIYYCFQGSHVPWTFGQGTKLEIKR
notes: CDRH3 variant of A1L1
On to B3, for which the Kd in experiment [3] was 779 pM; in experiment [4], 873 pM.

B4: A1Y97PheL1 (antibody, human IgG1, kappa, V domains shown)
VH: B3 VH with Y101F, E102D
VL: B3 VL
notes: CDRH3 variant of A1L1
Take B4: the dissociation constant (Kd) was 618 pM in experiment [3] and 683 pM in experiment [4].

B5: A1H100A ThrL1 (antibody, human IgG1, kappa, V domains shown)
VH: B3 VH with E102D, H105T
VL: B3 VL
notes: CDRH3 variant of A1L1
Consider B5, for which the Kd worked out at 211 pM in experiment [3] and 158 pM in experiment [4].

B6: A1H100A ValL1 (antibody, human IgG1, kappa, V domains shown)
VH: B3 VH with E102D, H105V
VL: B3 VL
notes: CDRH3 variant of A1L1
For the molecule B6, the results for the Kd in experiment [3] and in experiment [4] were 152 pM and 112 pM, respectively.

B7: A1H100A GluL1 (antibody, human IgG1, kappa, V domains shown)
VH: B3 VH with E102D, H105E
VL: B3 VL
notes: CDRH3 variant of A1L1
On to B7, for which the Kd turned out to be 195 pM in experiment [3] and 110 pM in experiment [4].

B8: A1H100A ArgL1 (antibody, human IgG1, kappa, V domains shown)
VH: B3 VH with E102D, H105R
VL: B3 VL
notes: CDRH3 variant of A1L1
Consider B8, for which the equilibrium dissociation constant (Kd) in experiment [3] turned out to be 307 pM; in experiment [4], 256 pM.

B9: A1H100A GlnL1 (antibody, human IgG1, kappa, V domains shown)
VH: B3 VH with E102D, H105Q
VL: B3 VL
notes: CDRH3 variant of A1L1
Turning to B9, the Kd in experiment [3] was determined as 278 pM; in experiment [4], 195 pM.

B10: A1I96ValL1 (antibody, human IgG1, kappa, V domains shown)
VH: B3 VH with I100V, E102D
VL: B3 VL
notes: CDRH3 variant of A1L1
As to B10, the dissociation constant (Kd) is 696 pM in experiment [3] and 395 pM in experiment [4].

B11: A1H100A SerL1 (antibody, human IgG1, kappa, V domains shown)
VH: B3 VH with E102D, H105S
VL: B3 VL
notes: CDRH3 variant of A1L1
For the molecule B11, the Kd in experiment [3] is 174 pM; in experiment [4] it was 131 pM.
